Each block holds one binder with its values, some of them ahead of it.
Tests used:
[1] = target: T1, recombinant human PD-1 expressed with a C-terminal myc-myc-hexahistidine tag (human); test: SPR (Biacore), mAb captured, hPD-1-MMH injected, 25 C;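 further: rate constants obtained by fitting sensorgrams to a 1:1 binding model, KD derived as kd/ka and half-life as ln2/(60·kd) in minutes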
T1 construct: also called hPD-1-MMH; human PD-1-MMH

[2] = target: T2, recombinant cynomolgus monkey PD-1 expressed with a C-terminal myc-myc-hexahistidine tag (cynomolgus monkey (Macaca fascicularis)); test: SPR (Biacore), MfPD-1-MMH, 25 C; end of range tied to H4H9057P2 by Table 8
T2 construct: Monomeric reagent; also called MfPD-1-MMH
T2 chain: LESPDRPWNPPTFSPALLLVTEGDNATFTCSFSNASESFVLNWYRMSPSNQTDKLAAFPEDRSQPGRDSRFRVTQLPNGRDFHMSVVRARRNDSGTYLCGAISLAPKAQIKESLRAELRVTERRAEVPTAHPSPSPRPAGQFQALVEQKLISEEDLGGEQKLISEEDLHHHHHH

[3] = target: T3, recombinant human PD-1 dimer expressed with a C-terminal mouse IgG2a Fc tag (human); test: competition ELISA: blocking 1.5 nM hPD-1-mFc binding to coated hPD-L1-hFc; end tied to H4H9057P2 by Table 12 (below theoretical bottom 0.75 nM)
T3 construct: also called hPD-1-mFc; human PD-1-mFc

monkey PD-1 with mFc [4] = target: T4, monkey PD-1 with mFc (monkey (MfPD-1)); test: SPR (Biacore), monkey PD-1-mFc, 25 C; end of range tied to H4H9068P2 by Table 10
T4 construct: also called monkey PD-1-mFc; monkey PD-1 dimer
T4 chain: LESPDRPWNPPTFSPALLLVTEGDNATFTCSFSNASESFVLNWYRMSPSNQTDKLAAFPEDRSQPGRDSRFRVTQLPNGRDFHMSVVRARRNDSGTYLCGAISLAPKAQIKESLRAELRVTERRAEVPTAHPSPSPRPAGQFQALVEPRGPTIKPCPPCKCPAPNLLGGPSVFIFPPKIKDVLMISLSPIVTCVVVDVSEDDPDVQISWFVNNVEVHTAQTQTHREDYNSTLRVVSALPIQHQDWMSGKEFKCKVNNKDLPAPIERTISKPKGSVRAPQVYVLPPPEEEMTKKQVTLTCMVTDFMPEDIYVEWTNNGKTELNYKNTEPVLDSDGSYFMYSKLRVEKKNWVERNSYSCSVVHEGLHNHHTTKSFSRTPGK

monkey PD-1 with mFc [5] = target: T4, monkey PD-1 with mFc; test: SPR (Biacore), monkey PD-1-mFc, 37 C; end of range tied to H4H9068P2 by Table 11
[6] = target: PD-1 chimera: extracellular domain of human PD-1 with trans-membrane and cytoplasmic domains of human CD300a, … (human, UniProt Q9UGN4 181-299, limits assumed); test: cell-based or functional assay
[7] = target: T1, recombinant human PD-1 expressed with a …; test: SPR (Biacore), hPD-1-MMH, 37 C; end of range tied to H2aM7798N by Table 5
[8] = target: T2, recombinant cynomolgus monkey PD-1 …; test: SPR (Biacore), MfPD-1-MMH, 37 C; end of range tied to H2aM7798N by Table 9
[9] = target: T5, human PD-1 dimer (human PD-1-mFc or human PD-1-hFc) (human, UniProt Q15116 25-170); test: SPR (Biacore), hPD-1 dimer (mFc or hFc), 25 C; end of range tied to H2aM7798N by Table 6
T5 construct: also called hPD-1 dimer proteins

[10] = target: T3, recombinant human PD-1 dimer expressed …; test: competition ELISA: blocking 100 pM hPD-1-mFc binding to coated hPD-L2-hFc; end tied to H2aM7798N by Table 14
[11] = target: T6, full length human PD-1 on HEK293 cells (HEK293/hPD-1) (human, UniProt Q15116 25-288); test: FACS, dose titration on HEK293/hPD-1 cells; end tied to H4H7798N by Table 21
T6 construct: also called human PD-1 expressing cells

monkey PD-1 with mFc [12] = target: T4, monkey PD-1 with mFc; test: SPR (Biacore), monkey PD-1-mFc, 25 C; end of range tied to H4H7798N by Table 10
[13] = target: T2, recombinant cynomolgus monkey PD-1 …; test: SPR (Biacore), MfPD-1-MMH, 37 C; end of range tied to H4xH9045P by Table 9
monkey PD-1 with mFc [14] = target: T7, monkey PD-1 with mFc (monkey); test: SPR, captured mAb, 25 C;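 further: purified anti-PD-1 antibodies tested on Biacore 4000 or T200 instruments, rate constants obtained via 1:1 binding model fit, with KD as kd/ka and half-life as ln2/(60·kd)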
T7 construct: also called monkey PD-1-mFc; monkey PD-1 dimer
T7 chain: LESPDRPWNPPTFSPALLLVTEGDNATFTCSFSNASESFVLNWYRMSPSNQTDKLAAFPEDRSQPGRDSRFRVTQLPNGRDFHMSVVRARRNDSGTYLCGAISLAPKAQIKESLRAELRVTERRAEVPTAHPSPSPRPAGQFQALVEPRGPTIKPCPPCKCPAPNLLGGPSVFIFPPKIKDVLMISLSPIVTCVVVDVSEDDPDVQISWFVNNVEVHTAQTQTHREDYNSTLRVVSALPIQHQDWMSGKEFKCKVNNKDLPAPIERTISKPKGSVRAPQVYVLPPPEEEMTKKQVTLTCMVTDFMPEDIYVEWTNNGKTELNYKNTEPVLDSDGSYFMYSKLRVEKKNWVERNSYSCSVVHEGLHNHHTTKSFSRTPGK

monkey PD-1 with mFc [15] = target: T7, monkey PD-1 with mFc; test: SPR, captured mAb, 37 C;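 further: Real-time Biacore surface plasmon resonance biosensor readout of PD-1 reagent binding to purified anti-PD-1 monoclonal antibodies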
[16] = target: full length human PD-1 on HEK293/hPD-1 cells (human, UniProt Q15116 25-288); test: FACS, 100 nM mAb, HEK293/hPD-1 cells;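 further: antibodies incubated with cells for 15-30 min on ice, bound antibody detected through a secondary F(ab′)2 by flow cytometry, with parental HEK293 cells tested in parallel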
[17] = target: T8, recombinant human PD-1 dimer expressed with a C-terminal mouse IgG2a Fc tag (human); test: competition ELISA: 1.5 nM hPD-1-mFc to coated hPD-L1-hFc
T8 construct: also called hPD-1-mFc

[18] = target: T8, recombinant human PD-1 dimer expressed …; test: competition ELISA: 100 pM hPD-1-mFc to coated hPD-L2-hFc
[19] = target: T9, recombinant human PD-1 expressed with a C-terminal human IgG1 Fc tag (human); test: SPR Biacore 3000: 100 nM hPD-1.hFc + 500 nM mAb to captured hPD-L1.mFc;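 further: inhibition study with anti-PD-1 mAbs, SPR responses tracked in real time and read at the close of each step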
T9 construct: also called hPD-1-hFc; hPD1-hFc

monkey PD-1 with mFc [20] = target: T7, monkey PD-1 with mFc; test: SPR, captured mAb, 37 C; no dissociation observed, kd fixed at 1.00E-05;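 on 100 nM Monkey PD-1-mFc Bound (RU): Real-time Biacore surface plasmon resonance biosensor readout of PD-1 reagent binding to purified anti-PD-1 monoclonal antibodies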
[21] = target: T10, recombinant human PD-L1 expressed with a C-terminal mouse IgG2a Fc tag (human); test: SPR Biacore 3000: 500 nM mAb alone (no hPD-1.hFc) over captured hPD-L1.mFc surface, control
T10 construct: also called hPD-L1-mFc; hPD-L1.mFc

monkey PD-1 with mFc [22] = target: T4, monkey PD-1 with mFc; test: SPR (Biacore), monkey PD-1-mFc, 37 C; end of range tied to H4xH9008P by Table 11 (kd fixed at 1.00E-05)
[23] = target: T2, recombinant cynomolgus monkey PD-1 …; test: SPR (Biacore), MfPD-1-MMH, 25 C; end of range tied to H4xH8999P by Table 8
[24] = target: T6, full length human PD-1 on HEK293 cells …; test: FACS, dose titration on HEK293/hPD-1 cells; end tied to H1M7799N by Table 20
[25] = target: T11, dimeric biotinylated human PD-1 protein, human PD-1 extracellular domain with a C-terminal human Fc tag (human, biotinylated (sites not given)); test: competition ELISA: blocking 200 pM biot-hPD-1-hFc binding to coated hPD-L1-mFc; end tied to H1M7799N by Table 13 (below theoretical bottom 100 pM)
T11 construct: also called biot-hPD-1-hFc

[26] = target: T3, recombinant human PD-1 dimer expressed …; test: competition ELISA: blocking 1.5 nM hPD-1-mFc binding to coated hPD-L1-hFc; end tied to H4xH9048P2 by Table 12

- Kd [1]: 291 nM
- koff [1]: 0.0134 s⁻¹
- kon [1]: 46000 M⁻¹ s⁻¹
- t½ [1]: 0.9 min
- Kd [2]: 551 nM
- IC50 [3]: 0.19 nM
B1: H4H9057P2 (antibody, human IgG4, V domains shown)
VH: EVQLVESGGGLVQSGRSLRLSCAASGFTFDDYAMHWVRQPPGKGLEWVSGINWNRGRTGYADSVKGRFTISRDNAKNSLYLQMNDLRVEDTALYYCAKAEQWLDEGYFDYWGQGTLVTVSS
VL: not shown
notes: Human IgG4 Fc (H4H prefix)

- Kd (monkey PD-1 with mFc [4]): 54.2 nM
- Kd (monkey PD-1 with mFc [5]): 86.3 nM
B2: H4H9068P2 (antibody, human IgG4, V domains shown)
VH: EVQLVESGGGLVQRGGSLRLSCAASGFSFSSYAMNWVRQAPGKGLEWVSTISDSGGSTYYADSVKGRFTISRDNSKNTLSLQMNSLRAEDTAVYYCAKDQGGSYPYYFHYWGQGTLVTVSS
VL: not shown
notes: Human IgG4 Fc (H4H prefix)

- Emax, AP1-Luc signal at 100 nM antibody (% of signal without anti-PD-1 antibody) [6]: 239%
- Kd [1]: 2.31 nM
- koff [1]: 0.000306 s⁻¹
- kon [1]: 132000 M⁻¹ s⁻¹
- t½ [1]: 38 min
- Kd [7]: 3.79 nM
- Kd [8]: 7 nM
- Kd [9]: 0.0655 nM
- IC50 [10]: 0.13 nM
B3: H2aM7798N (antibody, mouse IgG2a, V domains shown)
VH: EVQLLESGGVLVQPGGSLRLSCAASGFTFSNFGMTWVRQAPGKGLEWVSGISGGGRDTYFADSVKGRFTISRDNSKNTLYLQMNSLKGEDTAVYYCVKWGNIYFDYWGQGTLVTVSS
VL: DIQMTQSPSSLSASVGDSITITCRASLSINTFLNWYQQKPGKAPNLLIYAASSLHGGVPSRFSGSGSGTDFTLTIRTLQPEDFATYYCQQSSNTPFTFGPGTVVDFR
notes: Human variable domains, mouse IgG2a Fc; also called H2M7798N

- Emax, AP1-Luc signal at 100 nM antibody (% of signal without anti-PD-1 antibody) [6]: 343%
- Kd [1]: 3.01 nM
- koff [1]: 0.000443 s⁻¹
- kon [1]: 147000 M⁻¹ s⁻¹
- t½ [1]: 26 min
- EC50 [11]: 0.509 nM
- Kd (monkey PD-1 with mFc [12]): 0.137 nM
B4: H4H7798N (antibody, human IgG4 S228P, kappa, V domains shown)
VH: EVQLLESGGVLVQPGGSLRLSCAASGFTFSNFGMTWVRQAPGKGLEWVSGISGGGRDTYFADSVKGRFTISRDNSKNTLYLQMNSLKGEDTAVYYCVKWGNIYFDYWGQGTLVTVSS
VL: DIQMTQSPSSLSASVGDSITITCRASLSINTFLNWYQQKPGKAPNLLIYAASSLHGGVPSRFSGSGSGTDFTLTIRTLQPEDFATYYCQQSSNTPFTFGPGTVVDFRR

- Kd [1]: 74.6 nM
- koff [1]: 0.00403 s⁻¹
- kon [1]: 54000 M⁻¹ s⁻¹
- t½ [1]: 2.9 min
- Kd [13]: 7540 nM
B5: H4xH9045P (antibody, human IgG4, V domains shown)
VH: EVQLVESGGGLVQPGRSLRLSCAASGFTFDDYDMHWVRQAPGKGLEWVSGSGWNRGSLGYADSVKGRFTISRDNAKKSLYLQMNSVRVEDTALYYCAKGFVVVSAAYFDYWGQGTLVTVSS
VL: not shown
notes: H4xH: modified human IgG4 Fc; also called H4xH9045P2

- Kd (monkey PD-1 with mFc [14]): 0.48 nM
- t1/2 (monkey PD-1 with mFc [14]): 200 min
- 100 nM Monkey PD-1-mFc Bound (RU) (monkey PD-1 with mFc [15]): 98 RU
- MFI [16]: 26200 MFI
- % blocking at 200 nM antibody [17]: 88%
- IC50 [17]: 2.4 nM
- % blocking at 100 nM antibody [18]: 94%
- binding of the mixture (RU) [19]: 1 RU
- Kd (monkey PD-1 with mFc [20]): ≤ 0.049 nM
- t1/2 (monkey PD-1 with mFc [20]): ≥ 1160 min
- 500 nM of anti-PD-1 monoclonal antibody (RU) [21]: 0 RU
B6: H4xH9008P (antibody, V domains shown)
VH: EVQLVESGGGLVRPGGSLRLSCAASGFTFSTYAMAWVRQTPGKGLEGVSAIGGSGDSTYYVDSVKGRFTISRDNSKSTLFLQMNSLRAEDTAVYYCVKVRNYDGSFDIWGQGTMVTVSS
VL: not shown
notes: human IgG4 Fc with 2 or more amino acid changes (US20100331527)

- Kd [1]: 31 nM
- t½ [1]: 8.7 min
- Kd (monkey PD-1 with mFc [22]): < 0.049 nM
B7: H4xH9008P (antibody, human IgG4, V domains shown)
VH: EVQLVESGGGLVRPGGSLRLSCAASGFTFSTYAMAWVRQTPGKGLEGVSAIGGSGDSTYYVDSVKGRFTISRDNSKSTLFLQMNSLRAEDTAVYYCVKVRNYDGSFDIWGQGTMVTVSS
VL: not shown
notes: H4xH: modified human IgG4 Fc

- Kd [1]: 4.33 nM
- t½ [1]: 9.4 min
- Kd [23]: 3.09 nM
B8: H4xH8999P (antibody, human IgG4, V domains shown)
VH: QLQLQESGPGLVQPSETLSLTCTVSGDSISSTAYHWDWIRQPPGKGLEWIGTITYNGNTYFNPSLKSRVTISVDTSKNQFSLKLLSMTAAETAVFYCARHLGYNSDFFPFDFWGQGTLVTVSS
VL: not shown
notes: H4xH: modified human IgG4 Fc

- Kd [1]: 244 nM
- koff [1]: 0.0123 s⁻¹
- kon [1]: 50400 M⁻¹ s⁻¹
- t½ [1]: 0.9 min
- EC50 [24]: 0.0332 nM
- IC50 [25]: 0.059 nM
B9: H1M7799N (antibody, mouse IgG1, V domains shown)
VH: EVQLVESGGGLVQPGGSLRLSCAASGFTVSNNYMSWVRQAPGKGLEWVSVIYSGGFTYYTDSVKGRFTISRHNSKNTLYLQMNSLRAEDTAVYYCARYYYDTSDYWTFFDYWGQGTLVTVSS
VL: EIVMTQSPATLSVSPGERATLSCRASQSVSSNLAWYQQKPGQAPRLLIYGASTRATGIPARFSGSGSGTEFTLTISSLQSGDFAVYYCQQYNNWPLTFGGGTKVEIN
notes: Human variable domains, mouse IgG1 Fc

- Kd [1]: 8.95 nM
- koff [1]: 0.00123 s⁻¹
- kon [1]: 137000 M⁻¹ s⁻¹
- t½ [1]: 9.4 min
- IC50 [26]: 3.3 nM
B10: H4xH9048P2 (antibody, human IgG4, V domains shown)
VH: QVQLVQSGAEVKRPGSSVKVSCKVSGVTFRNFAIIWVRQAPGQGLEWMGGIIPFFSAANYAQSFQGRVTITPDESTSTAFMELASLRSEDTAVYYCAREGERGHTYGFDYWGQGTLVTVSS
VL: not shown
notes: H4xH: modified human IgG4 Fc
